2 substances from US20060292151A1, “L-SIGN polymorphisms and methods involving use of same” (priority 2004, published 2006) can be followed below.

In assay [1] the target is L-SIGN-9 (human). Put plainly: flow cytometry on HeLa-SIGN transfectants. (In general: In flow cytometry, cells or beads pass a laser one at a time.)
Assay [2] addresses HeLa-SIGN transfectants (L-SIGN isoforms tested). The assay can be described thus: flow cytometry, E2 at 5 µg/ml; upper end not tied to an isoform.
The target of assay [3] is L-SIGN-9 (human). Put plainly: flow cytometry, E2 at 5 µg/ml; lower end tied to L-SIGN-9 by the words L-SIGN-9 cells showing the lowest levels of binding.
Another assay addresses L-SIGN-7 (human) (UniProt Q9H2X3). The assay can be described thus: HCVpp supernatant on HeLa-SIGN transfectants, cell-bound p24 by ELISA. On the technique in general: In an ELISA, binding on a coated surface is turned into a signal by an enzyme label.

Chain of L-SIGN-7 (human) (Q9H2X3 whole entry): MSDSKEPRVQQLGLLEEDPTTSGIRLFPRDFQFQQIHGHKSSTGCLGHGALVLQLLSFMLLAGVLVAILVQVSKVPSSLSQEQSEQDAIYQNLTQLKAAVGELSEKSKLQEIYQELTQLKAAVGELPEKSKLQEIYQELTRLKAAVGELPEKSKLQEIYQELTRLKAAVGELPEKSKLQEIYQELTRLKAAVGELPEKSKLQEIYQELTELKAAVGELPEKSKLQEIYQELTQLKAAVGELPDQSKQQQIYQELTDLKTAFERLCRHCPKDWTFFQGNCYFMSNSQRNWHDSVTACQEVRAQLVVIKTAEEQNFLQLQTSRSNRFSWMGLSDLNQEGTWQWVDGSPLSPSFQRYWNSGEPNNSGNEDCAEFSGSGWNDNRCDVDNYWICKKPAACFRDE

In the assay with L-SIGN-9 (human) [1], soluble E2 glycoprotein returned a fold lower binding than the other isoforms of 2 to 3 fold. The figures for the fold above background binding to parental HeLa (in assay [2]; with L-SIGN-9 (human) [3]) were 25 fold and 9 fold, respectively. For the same substance, the results for the specific binding, percent of cells (in assay [2]; with L-SIGN-9 (human) [3]) were 93 % of cells and 35 % of cells, respectively.

The substance “HCV pseudovirus particles (HCVpp) (from UniProt P27958 192-383; P27958 384-746) (other; other documents disagree on this pair)” displayed a fold higher binding than to the other isoforms with L-SIGN-7 (human) of 2 fold.
